The target of the data set is AphB C235S-His6 (Vibrio cholerae, UniProt Q9KT56 1-299, C235S). The data set can be described thus: EMSA; 0-2 uM protein; affinity similar to wild type; 20 nM DNA, 10 mM Tris-HCl pH 7.5, 1 mM EDTA, 50 mM KCl, 100 ug/ml BSA, 10 ug/ml poly dI-dC, 100 mM DTT when indicated; 20 min at 25 C; 5% PAGE in 0.5X TAE. The following applies: protein: recombinant; chain copies: 2; label: 5'-biotin; blunt. (A gel shift assay detects complexes by their altered migration in electrophoresis.)

B1: tcpP promoter probe (dsDNA)
DNA 1: GCAATTAAGTTCTCATTATCAACTGCAGAATTAGATTGCAAATAATTATATTAAAAAAAA
DNA 2: TTTTTTTTAATATAATTATTTGCAATCTAATTCTGCAGTTGATAATGAGAACTTAATTGC
Regarding B1, the binding result is given as “binds”.

B2: hmpA promoter probe (dsDNA)
DNA 1: CAATAAATTAGGTTTTGGCATGCAATCTGCTCATTAAGAAGGCTTGTGTAGAGTGGCTCA
DNA 2: TGAGCCACTCTACACAAGCCTTCTTAATGAGCAGATTGCATGCCAAAACCTAATTTATTG
With B2, the binding result was “binds”.

The values above are taken from publication PMC9246220.
